Kd data for one substance are collected here from article PMC6123645.

As a reminder, the Kd is a measure of binding affinity in units of concentration.

This test concerns the target cBid 126C-DAC (caspase-8 cleaved Bid, single cysteine 126C, labelled with DAC) (UniProt P70444). The experiment in a line: FRET or BRET.

Consider “Bax 126C-NBD S184E (phosphomimetic Bax, single cysteine 126C, labelled with NBD) (from UniProt Q07812 1-192) (natural protein)”, for which the Kd was determined as 33 nM.
